These results are taken from PMC5658023 (Current biology : CB, 2017).

Read-outs that look alike come from different tables or passages of the source.

T1: GST-Chs4-SLR (220-610) (S. cerevisiae, UniProt P34226 220-610)
T1 sequence (looked up): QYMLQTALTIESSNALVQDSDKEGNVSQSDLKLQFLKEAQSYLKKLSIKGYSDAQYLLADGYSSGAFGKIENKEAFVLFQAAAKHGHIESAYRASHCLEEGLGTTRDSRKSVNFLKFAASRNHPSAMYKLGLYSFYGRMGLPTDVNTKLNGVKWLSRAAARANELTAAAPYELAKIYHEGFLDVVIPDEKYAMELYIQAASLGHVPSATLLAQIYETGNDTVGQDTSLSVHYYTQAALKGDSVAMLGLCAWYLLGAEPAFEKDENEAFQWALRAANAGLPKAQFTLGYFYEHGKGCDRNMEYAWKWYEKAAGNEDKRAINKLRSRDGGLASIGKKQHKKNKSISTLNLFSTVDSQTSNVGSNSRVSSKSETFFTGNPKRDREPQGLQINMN

T2: His6-Chs3-MID (477-1028) (S. cerevisiae, UniProt P29465 477-1028)
T2 sequence (looked up): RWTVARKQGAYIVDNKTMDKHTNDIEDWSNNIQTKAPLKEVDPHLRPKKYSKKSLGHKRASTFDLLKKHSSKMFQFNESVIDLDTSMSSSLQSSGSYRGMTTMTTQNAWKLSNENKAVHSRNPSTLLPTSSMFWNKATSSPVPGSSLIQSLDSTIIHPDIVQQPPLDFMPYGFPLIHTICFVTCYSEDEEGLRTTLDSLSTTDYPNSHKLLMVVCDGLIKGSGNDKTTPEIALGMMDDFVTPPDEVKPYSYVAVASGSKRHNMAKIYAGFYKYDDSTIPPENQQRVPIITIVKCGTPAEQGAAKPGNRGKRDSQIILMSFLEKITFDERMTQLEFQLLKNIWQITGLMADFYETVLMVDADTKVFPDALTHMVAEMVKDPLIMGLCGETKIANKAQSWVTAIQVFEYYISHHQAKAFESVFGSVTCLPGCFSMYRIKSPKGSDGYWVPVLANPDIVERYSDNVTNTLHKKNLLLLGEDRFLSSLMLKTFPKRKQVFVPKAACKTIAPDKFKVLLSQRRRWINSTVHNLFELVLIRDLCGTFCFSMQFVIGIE

B1: MBP-Hof1-F-BAR (1-275) (domain or fragment, S. cerevisiae, UniProt Q05080 1-275, looked up)
chain: MSYSYEACFWDPNDNGVNILLGHISQGIRSCDSMILFFKQRSELEKDYARRLGAITGKLDKDIGTNMDYGKLNETFNVVLSVEKARAQSHSKQSEILFRQIYTDTKAFAANLQARYTTLSGKIERLRMDKFNKKKGCEVLQKKLQDAQIRFRDLQLNENNMIGAKRVEHNKRELLKWESNSQEYKVQLDVLKQEYKASQKFWIHEWAQLSCELQEMENARISFLQSKLQQFATSSMETYILEQTKMDMLTNHLNSFTAADEISTFSKENGTGRLK
B2: His6-Hof1-N-term (domain or fragment, S. cerevisiae, UniProt Q05080 1-340, looked up)
chain: MSYSYEACFWDPNDNGVNILLGHISQGIRSCDSMILFFKQRSELEKDYARRLGAITGKLDKDIGTNMDYGKLNETFNVVLSVEKARAQSHSKQSEILFRQIYTDTKAFAANLQARYTTLSGKIERLRMDKFNKKKGCEVLQKKLQDAQIRFRDLQLNENNMIGAKRVEHNKRELLKWESNSQEYKVQLDVLKQEYKASQKFWIHEWAQLSCELQEMENARISFLQSKLQQFATSSMETYILEQTKMDMLTNHLNSFTAADEISTFSKENGTGRLKHKTSKGDMNSSANWAQMSSISTTSKKTESYMDNIRKLSSQLKETENKRKLASIDKYEKPLPSPEV
B3: MBP-Hof1-N-term (1-340) (domain or fragment, S. cerevisiae, UniProt Q05080 1-340, looked up)
chain: B2 chain
B4: MBP-Chs4-SLR (220-610) (domain or fragment, S. cerevisiae, UniProt P34226 220-610, looked up)
chain: T1 sequence (looked up)

What all share (test): pull-down
In assay [1] the target is T1, GST-Chs4-SLR (220-610).
In assay [2] the target is B4.
Assay [3] has as its target T1, GST-Chs4-SLR (220-610). This is another data set of the same source.
Assay [4] concerns the target T2, His6-Chs3-MID (477-1028).

As for B1, the binding result in assay [1] is “binds”.
Take B2: the binding result in assay [2] and in assay [3] was “binds” in each case.
With B3, the binding result in assay [1] is “binds”.
For the molecule B4, in assay [4], the binding result is listed as “binds”.
